Assay [1] addresses α-amylase from Tenebrio molitor (Tenebrio molitor (endogenous in larvae)) (UniProt P56634).
Assay [2] has as its target T1, α-amylase from porcine pancreas (porcine, UniProt P00690 16-511).
T1 construct: pancreatic α-amylase, pig, from porcine pancreas; also called porcine pancreatic α-amylase; pig α-amylase; source: bought: Sigma-Aldrich (Type VI-B A3176-2.5MU)
T1 sequence (looked up): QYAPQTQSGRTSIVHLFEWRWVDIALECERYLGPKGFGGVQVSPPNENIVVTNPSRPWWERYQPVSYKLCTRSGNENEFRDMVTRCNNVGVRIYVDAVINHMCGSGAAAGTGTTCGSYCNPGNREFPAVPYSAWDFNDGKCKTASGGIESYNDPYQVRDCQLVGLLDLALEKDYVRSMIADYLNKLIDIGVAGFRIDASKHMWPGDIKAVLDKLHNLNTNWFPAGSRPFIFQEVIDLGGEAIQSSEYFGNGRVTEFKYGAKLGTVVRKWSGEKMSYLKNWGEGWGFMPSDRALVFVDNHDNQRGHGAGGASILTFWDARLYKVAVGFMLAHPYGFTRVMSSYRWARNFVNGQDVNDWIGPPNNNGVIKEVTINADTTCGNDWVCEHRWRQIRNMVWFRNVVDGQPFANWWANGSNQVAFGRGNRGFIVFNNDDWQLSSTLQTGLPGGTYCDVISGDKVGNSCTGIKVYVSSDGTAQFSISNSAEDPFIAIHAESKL
The assay can be described thus: enzyme inhibition kinetics (Lineweaver-Burk); porcine α-amylase with 0, 0.25 and 0.50 µM α-AI, CNP-G3 0.1 to 5 mM as substrate, 250 mM sodium phosphate pH 6.5, 60 mM NaCl, 5 mM CaCl2, 500 mM KSCN, 37 °C, 10 min preincubation; mixed-type inhibition. Particulars: both partners purified.

α-amylase from Tenebrio molitor (Tenebrio molitor (endogenous in larvae)), sequence (P56634 whole entry): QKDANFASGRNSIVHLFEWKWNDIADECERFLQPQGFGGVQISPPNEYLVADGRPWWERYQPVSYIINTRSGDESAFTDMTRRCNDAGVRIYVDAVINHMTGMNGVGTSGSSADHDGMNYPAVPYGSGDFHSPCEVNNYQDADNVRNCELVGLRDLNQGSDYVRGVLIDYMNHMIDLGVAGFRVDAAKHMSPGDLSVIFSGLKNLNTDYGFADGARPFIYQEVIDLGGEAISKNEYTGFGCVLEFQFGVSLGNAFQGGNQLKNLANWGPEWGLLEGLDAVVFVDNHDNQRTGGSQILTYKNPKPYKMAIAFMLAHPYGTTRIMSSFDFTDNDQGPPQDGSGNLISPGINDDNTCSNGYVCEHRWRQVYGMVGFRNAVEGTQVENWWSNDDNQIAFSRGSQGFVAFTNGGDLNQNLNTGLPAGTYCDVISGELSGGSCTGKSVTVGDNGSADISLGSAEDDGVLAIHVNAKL

B1: α-amylase inhibitor (α-AI) purified from Phaseolus vulgaris Nieddone cultivar (complex)
chain 1: ATETSFIIDAFNKTNLILQGDATVSSNGNLQLSYNSYDSMSRAFYSAPIQIRDSTTGNVASFDTNFTMNIRTHRQAN
chain 2: SAVGLDFVLVPVQPESKGDTVTVEFDTFLSRISIDVNNNDIKSVPWDVHDYDGQNAEVRITYNSSTKVFSVSLSNPSTGKSNNVSTTVELEKEVYDWVSVGFSATSGAYQWSYETHDVLSWSFSSKFINLKDQKSERSN
modifications: native seed glycoprotein (N-glycosylated; sites not given); alpha2beta2 tetramer cleaved after Asn77 (mature numbering, = Asn100 of precursor). Reference sequence P02873 used: Nieddone cultivar …
B1 had an inhibitory power against α-amylase, CNP-G3 assay; susceptibility against that of human salivary and porcine pancreatic α-amylase in assay [1] of 3 fold. This molecule also showed an inhibition constant (Ki) in assay [2] of 170 nM.

As usually defined, the Ki is a measure of affinity in units of concentration, obtained from inhibition or displacement. A low value points to a stronger hold on the target.
